In patent US20210147486A1 (VIB VZW, published 2021):
Where a chain is given by its changes, count along the chain named. In names and notes the source's numbering stands. Where no end group is shown, it is not given here. The star is where a group is joined. NH(CH2)5NH2 = NCCCCCN*

Key:
[1] = target: T1, CsgG Y51A/N55V/F56Q/N91R/K94Q/R97W-del(V105-I107) pore containing the C terminal strep tag (Escherichia coli, UniProt P0AEA2 16-277); assay: complex made by incubating pore and peptide; DNA translocation current recording
T1 construct: also called Y51A/F56Q/N55V/N91R/K94Q/R97W-del(V105-I107); not shown: C-terminal Strep tag
T1 chain: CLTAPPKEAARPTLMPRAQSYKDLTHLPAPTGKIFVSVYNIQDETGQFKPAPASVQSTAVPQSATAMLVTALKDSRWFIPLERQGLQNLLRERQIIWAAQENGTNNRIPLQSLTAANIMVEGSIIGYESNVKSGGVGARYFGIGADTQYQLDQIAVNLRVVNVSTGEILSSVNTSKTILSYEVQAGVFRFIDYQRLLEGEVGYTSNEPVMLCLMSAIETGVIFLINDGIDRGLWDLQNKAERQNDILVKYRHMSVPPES

[2] = target: T2, CsgG Y51T/N55V/F56Q/N91R/K94Q/R97W-del(V105-I107) pore containing the C terminal strep tag (Escherichia coli, UniProt P0AEA2 16-277); assay: panel B; complex made by incubating pore and peptide; DNA translocation current recording
T2 construct: not shown: C-terminal Strep tag
T2 chain: T1 chain with A51T

[3] = target: T3, CsgG Y51A/N55I/F56Q/N91R/K94Q/R97W-del(V105-I107) pore containing the C terminal strep tag (Escherichia coli, UniProt P0AEA2 16-277); assay: panel C; complex made by incubating pore and peptide; DNA translocation current recording
T3 construct: N551 read as N55I; also called Y51A/N551/F56Q/N91R/K94Q/R97W-del(V105-I107) (so in the source); not shown: C-terminal Strep tag
T3 chain: T1 chain with V55I

[4] = target: T4, CsgG Y51A/F56A/N91R/K94Q/R97W-del(V105-I107) pore containing the C terminal strep tag (Escherichia coli, UniProt P0AEA2 16-277); assay: panel D; complex made by incubating pore and peptide; DNA translocation current recording
T4 construct: not shown: C-terminal Strep tag
T4 chain: T1 chain with V55N, Q56A

[5] = target: T5, CsgG Y51A/F56I/N91R/K94Q/R97W-del(V105-I107) pore containing the C terminal strep tag (Escherichia coli, UniProt P0AEA2 16-277); assay: panel E; complex made by incubating pore and peptide; DNA translocation current recording
T5 construct: F561 read as F56I; also called Y51A/F561/N91R/K94Q/R97W-del(V105-I107) (so in the source); not shown: C-terminal Strep tag
T5 chain: T1 chain with V55N, Q56I

[6] = target: T6, CsgG Y51S/N55V/F56Q/N91R/K94Q/R97W-del(V105-I107) pore containing the C terminal strep tag (Escherichia coli, UniProt P0AEA2 16-277); assay: panel F; complex made by incubating pore and peptide; DNA translocation current recording
T6 construct: not shown: C-terminal Strep tag
T6 chain: T1 chain with A51S

[7] = target: T7, E. coli CsgG (wild type) fused C-terminally to a Strep-II tag (Escherichia coli, UniProt P0AEA2 16-277, N-terminal Cys of mature CsgG lipidated (N-terminal lipidation of CsgG)); assay: co-expression, Strep affinity purification, anti-His dot blot
T7 construct: Nonameric pore; dimers of nonamers (18-mer) also seen; also called CsgG-Strep; CsgG pore; not shown: C-terminal Strep-II tag
T7 sequence: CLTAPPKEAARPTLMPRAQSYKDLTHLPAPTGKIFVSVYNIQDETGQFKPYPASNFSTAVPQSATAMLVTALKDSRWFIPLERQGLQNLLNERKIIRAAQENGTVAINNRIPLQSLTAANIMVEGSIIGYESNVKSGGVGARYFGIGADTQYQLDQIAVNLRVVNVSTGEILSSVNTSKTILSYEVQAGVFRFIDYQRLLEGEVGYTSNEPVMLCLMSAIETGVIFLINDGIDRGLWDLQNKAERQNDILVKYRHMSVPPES

[8] = target: T1, CsgG …; assay: reconstitution of purified pore with synthetic peptide; SDS-PAGE after heating
[9] = target: T1, CsgG …; assay: reconstitution of purified pore with synthetic peptide; electrophysiology
[10] = target: T7, E. coli CsgG (wild type) fused …; assay: co-expression in E. coli; His then Strep tandem affinity purification; SDS-PAGE
[11] = target: T7, E. coli CsgG (wild type) fused …; assay: in vitro reconstitution 2:1 peptide:CsgG, StrepTactin pull down, native PAGE fluorescence
[12] = target: T8, CsgG Y51A/F56Q/K94Q/R97W/R192D-del(V105-I107), Strep-tagged (Escherichia coli, UniProt P0AEA2 16-277); assay: as above
T8 construct: also called CsgG mutant with altered constriction; not shown: C-terminal Strep tag
T8 chain: T1 chain with V55N, R91N, R189D

[13] = target: T9, CsgG Y51A/F56Q/N91R/K94Q/R97W-del(V105-I107) pore containing the C terminal strep tag (Escherichia coli, UniProt P0AEA2 16-277); assay: co-expression, purification, TEV cleavage; DNA translocation current recording
T9 construct: not shown: C-terminal Strep tag
T9 chain: T1 chain with V55N

GTMTFQFRNPNFGGNPSNGAFLLNSAQAQNSYKDP (also called CsgF-N175-(1-35)) [CsgF-N17S-(1-35) peptide]: binds [1]; binds [2]; binds [3]. GTMTFQFRNPNFGGNPSNGAFLLNSAQAQNSYKDP (also called CsgF-N175-(1-35)) [CsgF-N17S-(1-35) peptide]: binds [4]; binds [5]; binds [6].

GTMTFQFRNPNFGGNPVNGAFLLNSAQAQNSYKDP [CsgF-N17V-(1-35) peptide]: binds [1].

B1: CsgF 20:64 fragment with C-terminal 6xHis (from pNA100) (peptide)
peptide: GTMTFQFRNPNFGGNPNNGAFLLNSAQAQNSYKDPSYNDDFGIETHHHHHH
notes: also called CsgF 1-64; CsgF fragment 1-64
B1: binds [7].

GTMTFQFRNPNFGGNPNNGAFLLNSAQAQNSYKDPSYNDDFGIET [CsgF-(1-45) synthetic peptide]: binds [8].

GTMTFQFRNPNFGGNPNNGAFLLNSAQAQN [CsgF-(1-30) synthetic peptide]: binds [9].

GTMTFQFRNPNFGGNPNNGAFLLNSAQAQ [CsgF-(1-29) synthetic peptide]: binds [9].

B2: E. coli CsgF (mature) with a C-terminal 6x histidine tag (other)
chain: GTMTFQFRNPNFGGNPNNGAFLLNSAQAQNSYKDPSYNDDFGIETPSALDNFTQAIQSQILGGLLSNINTGKPGRMVTNDYIVDIANRDGQLQLNVTDRKTGQTSTIQVSGLQNNSTDFHHHHHH
notes: a start Met is not mentioned; 9:9 stoichiometry with CsgG in the cryoEM structure; also called CsgF-His
B2: binds [10].

B3: Alexa 594-labelled CsgF peptide corresponding to the first 34 residues of mature CsgF (peptide)
peptide: GTMTFQFRNPNFGGNPNNGAFLLNSAQAQNSYKD-{NH(CH2)5NH2-Alexa594}
notes: Synthetic peptide; also called CsgF N-terminal peptide; FCP
B3: binds [11]; binds [12].

B4: CsgF truncated at position 35 by TEV cleavage, with ENLYFQ left at the C-terminus (peptide)
peptide: GTMTFQFRNPNFGGNPNNGAFLLNSAQAQNSYKDPENLYFQ
notes: The text calls it 42 amino acids long; 35 + 6 gives 41; also called CsgF truncated protein
B4: binds [13].

GTMTFQFRNPNFGGNPSNGAFLLNSAQAQNSYKDPENLYFQ [CsgF N17S truncated at position 35 by TEV cleavage, with ENLYFQ left at the C-terminus]: binds [13].
